What is called koff is a measure of how fast the partners let go of each other.

For data set [1], the target named is ternary complex (TC) of WT eIF2, GDPNP and Met-tRNAi, P20459;P09064;P32481. Briefly: TC dissociation kinetics, EMSA. In general terms: Mobility shift assays separate free from complexed probe on a gel.
The subject of data set [2] is eIF2 (WT), GDPNP-bound;eIF1-Q31A/F108A;eIF1A (WT);40S ribosomal subunit (Saccharomyces cerevisiae (yeast);Saccharomyces cerevisiae (yeast);Saccharomyces cerevisiae? (yeast);Saccharomyces cerevisiae (strain YAS2488)). As to the kind of experiment: EMSA kinetics. The following applies: aminoacylated with Met, 30 mM HEPES-KOH pH 7.4, 100 mM potassium acetate, 3 mM magnesium acetate, 2 mM DTT, 26 C, native gel shift.

For data set [3], the system named is eIF2 with eIF2beta-F217A/Q221A;eIF1 (WT);eIF1A (WT);40S ribosomal subunit (Saccharomyces cerevisiae (yeast);Saccharomyces cerevisiae (yeast);Saccharomyces cerevisiae? (yeast);Saccharomyces cerevisiae (strain YAS2488)). Briefly: EMSA kinetics. The conditions noted are these: aminoacylated with Met; 30 mM HEPES-KOH pH 7.4, 100 mM potassium acetate, 3 mM magnesium acetate, 2 mM DTT, 26 C; GDPNP; native gel shift.

Data set [4] relates to eIF2 with eIF2beta-E189R;eIF1 (WT);eIF1A (WT);40S ribosomal subunit (Saccharomyces cerevisiae (yeast);Saccharomyces cerevisiae (yeast);Saccharomyces cerevisiae? (yeast);Saccharomyces cerevisiae (strain YAS2488)). Briefly: EMSA kinetics. The conditions noted are these: aminoacylated with Met; 30 mM HEPES-KOH pH 7.4, 100 mM potassium acetate, 3 mM magnesium acetate, 2 mM DTT, 26 C; GDPNP; native gel shift.

For data set [5], the target named is 40S·eIF1·eIF1A·mRNA complex with WT eIF1, P32911;P38912. Briefly: TC binding kinetics (kobs versus [40S], as in Figure 6A–C). The following applies: three independent experiments.

Regarding “40S·eIF1·eIF1A·mRNA complex with WT eIF1 (from UniProt P32911;P38912) eIF1:F108D”, the koff was 5e-05 s⁻¹ in data set [1] (mRNA(AUG), n = 3 (WT n = 5)) and 7.5e-05 s⁻¹ in data set [1] (mRNA(UUG), n = 3 (WT n = 5)).
As to “40S·eIF1·eIF1A·mRNA complex with WT eIF1 (from UniProt P32911;P38912) eIF1:Q31E”, the koff in data set [1] (mRNA(UUG), n = 4 (WT n = 5)) turned out to be 3.33e-05 s⁻¹.
For Met-tRNAi on 40S with mRNA(AUG), in data set [2], the binding signal (fold decrease in kon vs WT eIF1) is 2. Moreover, the binding signal (fold decrease in kon vs WT eIF2) in data set [3] is 1.5.
Met-tRNAi on 40S with mRNA(UUG): the binding signal (fold decrease in koff vs WT eIF2) in data set [4] was 2. In addition, the binding signal (fold decrease in kon vs WT eIF2) in data set [3] is 1.5.
With “ternary complex (TC) of WT eIF2, GDPNP and Met-tRNAi (from UniProt P20459;P09064;P32481) eIF2β:S202A; eIF2β:K214A”, the kon in data set [5] (mRNA(AUG)) came to 4.11 s⁻¹; in data set [5] (mRNA(UUG)), 2.76 s⁻¹.

For the origin of these results see paper PMC6411837.
